From US20100115639A1 (PIERRE FABRE MEDICAMENT, published 2010)
Substitutions are numbered along the chain they refer to.

Tests used:
[1] = molecular target: c-Met receptor on A549 cells (human, UniProt P08581 25-1390); test: cell-based or functional assay
[2] = molecular target: T1, recombinant c-Met-Extra-Cellular Domain (ECD) fused to a human IgG1 Fc domain (R&D Systems, 358MT) (human, UniProt P08581 25-932); test: displacement of [125I]-HGF from immobilized c-Met-Fc (FlashPlate)
T1 construct: extracellular domain; Bought; bivalent (dimeric) fusion, MW 129 kDa as printed; also called c-Met-Fc; c-Met-Fc-Tag His; not shown: human IgG1 Fc domain

[3] = molecular target: C-Met-Rluc and C-Met-K1100A-YFP co-expressed in CHO stable cell lines (R. reniformis), P08581; test: cell-based or functional assay
[4] = molecular target: T1, recombinant c-Met-Extra-Cellular Domain …; test: BIAcore X, Fab as analyte on c-Met-Fc-His captured by anti-His antibody, 25°C
Protocol: (§1) For the assay, an anti-Tag histidine capture antibody was coated on CM5 sensorchips. The running buffer was HBS-EP, the flow rate was 30 μl/min and the test was performed at 25° C. Soluble c-Met (ECD M1)2-Fc-(HHHHHH)₂ antigen was captured on the sensorchip (around 270 RU), and the antibodies to be tested were used in solution as analytes. The sensorship was regenerated using Glycine, HCl pH 1.5 buffer on both flowcells for half a minute.

[5] = molecular target: T1, recombinant c-Met-Extra-Cellular Domain …; test: BIAcore X, Fab as analyte on c-Met-Fc-His captured by anti-His antibody, 25°C; column head misprinted
Protocol: as §1

[6] = molecular target: T2, recombinant SEMA domain of c-Met (UniProt P08581 27-515, limits assumed); test: ELISA, SEMA domain coated at 3 µg/ml, hybridoma supernatants
T2 construct: domain: SEMA; also called SEMA protein
Protocol: The reaction is left to occur for 5 min at room temperature. The reaction is stopped by the addition of 50 μl/well of a 1 M H₂SO₄ solution and read on a plate reader at 450 nm.

Molecule “5D5 Mab, generated by Genentech, available at the ATCC (antibody)” has an agonist effect on c-Met phosphorylation (Mab alone, A549 cells) [1] of 58%, an antagonist effect on c-Met phosphorylation in presence of HGF (A549 cells) [1] of 39% and an inhibition of c-Met phosphorylation (phospho c-Met ELISA, A549 cells + HGF 100 ng/ml, antibody 30 µg/ml) [1] of 42%.

B1: 11E1 murine monoclonal antibody (antibody, V domains shown)
VH: QVQLQQSGAELAKPGASVKMSCKASGYTFTSYWMNWVKQRPGQGLEWIGYINPTTGSTDYNQKLKDKATLTADKSSNTAYMQLSSLTSEDSAVYYCAIGGYGSWFAYWGQGTLVTVSA
VL: QIVLTQSPAIMSASPGEKVTLTCSASSSVSSTYLYWYQQKPGSSPKLWIYTTSILASGVPARFSGSGSGTSYSLTISSMETEDAASYFCHQWSSYPFTFGSGTKLDIK
notes: Used as hybridoma supernatant or purified Mab; also called MAb 11E1; CNCM I-3724
With B1 the IC50 [2] was 20 nM, the inhibition of dimerization (BRET signal, CHO cells) [3] was 69% and the “basal effect on c-Met phosphorylation (antibody alone, A549 cells)” value (“basal effect on c-Met phosphorylation” below) [1] was < 20%. For the same molecule, the “inhibition of c-Met phosphorylation (phospho c-Met ELISA, A549 cells + HGF 100 ng/ml, antibody 30 µg/ml)” value (“inhibition of c-Met phosphorylation” for short) [1] was 68%.

B2: Fab fragment of mAb 11E1 (papain cleavage) (Fab, V domains shown)
VH: B1 VH
VL: B1 VL
notes: also called 11E1 Fab
In the case of B2, the Half-Life [4] is reported as 4.1 h, the Kd [4] is reported as 0.0414 nM and the kon [4] is reported as 1.13e+06 M⁻¹ s⁻¹. For the same molecule, the koff [5] was 4.68e-05 s⁻¹.

B3: 224G11 murine monoclonal antibody (antibody, mouse IgG1, V domains shown)
VH: EVQLQQSGPELVKPGASVKISCKTSGYIFTAYTMHWVRQSLGESLDWIGGIKPNNGLANYNQKFKGKATLTVDKSSSTAYMDLRSLTSEDSAVYYCARSEITTEFDYWGQGTALTVSS
VL: DIVLTQSPASLAVSLGQRATISCRASESVDSYANSFMHWYQQKPGQPPKLLIYRASNLESGIPARFSGSGSRTDFTLTINPVEADDVATYYCQQSKEDPLTFGSGTKLEMK
notes: also called CNCM I-3731
B3 was tested, and the IC50 [2] was 3 nM, the binding result [6] was “no binding” and the inhibition of dimerization (BRET signal, CHO cells) [3] was 32%. The “basal effect on c-Met phosphorylation” value [1] was < 20% and the “inhibition of c-Met phosphorylation” value [1] was 54%.

B4: Fab fragment of mAb 224G11 (papain cleavage) (Fab, V domains shown)
VH: B3 VH
VL: B3 VL
notes: also called 224G11 Fab
In the case of B4, the Half-Life [4] is reported as 2.5 h, the Kd [4] is reported as 0.0348 nM and the kon [4] is reported as 2.04e+06 M⁻¹ s⁻¹. It also gave a koff [5] of 7.79e-05 s⁻¹.

B5: 227H1 murine monoclonal antibody (antibody, mouse IgG1, V domains shown)
VH: EVQLQQSGPELVKPGASMKISCKASGYSFTDYTLNWVKQSHGKTLEWIGLINPYNGGTTYNQKFKGKATLTVDKSSSTAYMELLSLTSEDSAVYYCAREEITKDFDFWGQGTTLTVSS
VL: B3 VL with D1G, A25V, V29I, S31T, A33G, M37I, V87S, K96N, L100F
notes: also called CNCM I-3732
B5 was tested, and the IC50 [2] was 5.8 nM, the binding result [6] was “no binding” and the inhibition of dimerization (BRET signal, CHO cells) [3] was 52%. The “basal effect on c-Met phosphorylation” value [1] was < 20% and the “inhibition of c-Met phosphorylation” value [1] was 65%.

B6: 223C4 murine monoclonal antibody (antibody, mouse IgG1, V domains shown)
VH: EVLLQQSGPELVKPGASVKIPCKASGYTFTDYNMDWVKQSHGMSLEWIGDINPNNGGTIFNQKFKGKATLTVDKSSSTAYMELRSLTSEDTAVYYCARGRYVGYYYAMDYWGQGTSVTVSS
VL: DIQMTQSPASLSVSVGETVTITCRASENIYSNLAWYQQKQGKSPQLLVYAATNLVDGVPSRFSGSGSGTQYSLKINSLQSEDFGSYYCQHFWGPPYTFGGGTKLEIK
notes: also called CNCM I-3786
For B6, the IC50 [2] was 2.7 nM, the binding result [6] was “no binding” and the inhibition of dimerization (BRET signal, CHO cells) [3] was 55%. The “basal effect on c-Met phosphorylation” value [1] was < 20% and the “inhibition of c-Met phosphorylation” value [1] was 80%.
